{"source": "patent US11266675", "target": "Heat shock cognate protein 70 (Hsc70) (UniProt P11142)", "sequence (P11142 2-646)": "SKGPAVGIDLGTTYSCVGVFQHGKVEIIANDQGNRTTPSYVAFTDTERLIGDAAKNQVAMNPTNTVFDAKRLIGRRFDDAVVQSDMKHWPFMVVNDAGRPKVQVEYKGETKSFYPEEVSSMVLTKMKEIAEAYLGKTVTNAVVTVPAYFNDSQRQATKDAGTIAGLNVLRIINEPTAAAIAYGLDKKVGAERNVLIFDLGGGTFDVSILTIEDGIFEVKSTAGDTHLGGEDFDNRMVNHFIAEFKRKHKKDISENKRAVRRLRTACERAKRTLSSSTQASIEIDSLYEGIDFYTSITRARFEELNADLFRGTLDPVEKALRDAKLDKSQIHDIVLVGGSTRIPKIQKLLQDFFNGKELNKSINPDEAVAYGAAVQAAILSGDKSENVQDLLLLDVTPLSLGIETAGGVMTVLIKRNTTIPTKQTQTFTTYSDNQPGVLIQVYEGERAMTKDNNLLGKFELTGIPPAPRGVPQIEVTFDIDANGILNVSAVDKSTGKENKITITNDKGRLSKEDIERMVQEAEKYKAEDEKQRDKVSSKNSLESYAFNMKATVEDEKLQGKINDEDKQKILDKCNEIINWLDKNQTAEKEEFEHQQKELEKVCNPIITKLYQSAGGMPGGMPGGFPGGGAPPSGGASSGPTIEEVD"}
{"substance": "recombinant His-tagged 2A^pro (2A protease of EV-A71)", "values": [{"measurement": "cleavage of eIF4G by recombinant 2A^pro in vitro (immunoblot)", "value": "the cleaved eIF4G was up-regulated in Hsc70 overexpressed cells, indicating an increase of 2A^pro proteolytic activity upon increased Hsc70 level"}]}
